The text below walks through data of US20250206823A1 (published 2025).

Broadly, the EC50 is the concentration that produces a half-maximal response. A high value points to weaker potency.

This assay has as its target CD33 naturally expressed on HL60 cells (human, UniProt P20138 18-364). Description: FACS.

Sequence of CD33 naturally expressed on HL60 cells (P20138 18-364): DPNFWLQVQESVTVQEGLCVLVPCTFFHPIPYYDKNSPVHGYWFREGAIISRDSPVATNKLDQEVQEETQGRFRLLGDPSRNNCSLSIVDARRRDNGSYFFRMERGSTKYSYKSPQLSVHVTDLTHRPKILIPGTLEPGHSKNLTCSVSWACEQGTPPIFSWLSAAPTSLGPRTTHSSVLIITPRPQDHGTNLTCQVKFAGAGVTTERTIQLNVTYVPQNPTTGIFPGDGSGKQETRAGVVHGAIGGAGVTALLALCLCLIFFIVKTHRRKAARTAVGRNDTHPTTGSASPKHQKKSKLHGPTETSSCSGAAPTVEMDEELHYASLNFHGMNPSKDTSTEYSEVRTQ

B1: CD33/CD16A bispecific antibody QP411543674368 (FC with L234A/L235A mutation for eliminating function) (bispecific antibody)
scFv: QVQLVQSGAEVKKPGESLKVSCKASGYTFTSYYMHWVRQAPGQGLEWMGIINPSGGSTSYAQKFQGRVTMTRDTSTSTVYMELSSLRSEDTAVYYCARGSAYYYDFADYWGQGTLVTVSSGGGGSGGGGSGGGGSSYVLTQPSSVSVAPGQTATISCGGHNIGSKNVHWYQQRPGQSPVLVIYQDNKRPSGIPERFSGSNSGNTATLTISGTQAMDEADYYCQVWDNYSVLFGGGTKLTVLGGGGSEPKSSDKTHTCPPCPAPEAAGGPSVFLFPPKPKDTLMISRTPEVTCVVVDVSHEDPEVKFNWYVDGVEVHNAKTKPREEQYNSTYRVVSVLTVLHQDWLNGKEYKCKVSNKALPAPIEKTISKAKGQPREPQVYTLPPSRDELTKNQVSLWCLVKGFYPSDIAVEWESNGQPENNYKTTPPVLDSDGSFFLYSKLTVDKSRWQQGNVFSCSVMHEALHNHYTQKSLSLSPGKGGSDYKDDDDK
heavy: QVQLVQSGAEVKKPGESVKVSCKASGYTFTNYGMNWVKQAPGQGLEWMGWINTYTGEPTYADKFQGRVTMTTDTSTSTAYMEIRNLGGDDTAVYYCARWSWSDGYYVYFDYWGQGTSVTVSSASTKGPSVFPLAPSSKSTSGGTAALGCLVKDYFPEPVTVSWNSGALTSGVHTFPAVLQSSGLYSLSSVVTVPSSSLGTQTYICNVNHKPSNTKVDKKVEPKSCDKTHTCPPCPAPEAAGGPSVFLFPPKPKDTLMISRTPEVTCVVVDVSHEDPEVKFNWYVDGVEVHNAKTKPREEQYNSTYRVVSVLTVLHQDWLNGKEYKCKVSNKALPAPIEKTISKAKGQPREPQVYTLPPSREEMTKNQVSLSCAVKGFYPSDIAVEWESNGQPENNYKTTPPVLDSDGSFFLVSKLTVDKSRWQQGNVFSCSVMHEALHNRYTQKSLSLSPGKGGSHHHHHH
light: DIVMTQSPDSLTVSLGERTTINCKSSQSVLDSSTNKNSLAWYQQKPGQPPKLLLSWASTRESGIPDRFSGSGSGTDFTLTIDSPQPEDSATYYCQQSAHFPITFGQGTRLEIKRTVAAPSVFIFPPSDEQLKSGTASVVCLLNNFYPREAKVQWKVDNALQSGNSQESVTEQDSKDSTYSLSSTLTLSKADYEKHKVYACEVTHQGLSSPVTKSFNRGEC
B1: the EC50 stood at 11.4 nM.
